{
  "source": "paper PMC3854871",
  "about": "“Knockdown of Asparagine Synthetase A Renders Trypanosoma brucei Auxotrophic to Asparagine” (PLoS Neglected Tropical Diseases, 2013)",
  "key": {"TcAS-A [1]": {"target": "T1, TcAS-A (Trypanosoma cruzi, UniProt Q4CRM4)", "T1 construct": "gene Tc00.1047053503625.10; full ORF in pET28a(+), 6-His-tagged, expressed in E. coli BL21DE3, Ni purified; predicted dimer (homology model)", "T1 sequence (Q4CRM4 1-348)": "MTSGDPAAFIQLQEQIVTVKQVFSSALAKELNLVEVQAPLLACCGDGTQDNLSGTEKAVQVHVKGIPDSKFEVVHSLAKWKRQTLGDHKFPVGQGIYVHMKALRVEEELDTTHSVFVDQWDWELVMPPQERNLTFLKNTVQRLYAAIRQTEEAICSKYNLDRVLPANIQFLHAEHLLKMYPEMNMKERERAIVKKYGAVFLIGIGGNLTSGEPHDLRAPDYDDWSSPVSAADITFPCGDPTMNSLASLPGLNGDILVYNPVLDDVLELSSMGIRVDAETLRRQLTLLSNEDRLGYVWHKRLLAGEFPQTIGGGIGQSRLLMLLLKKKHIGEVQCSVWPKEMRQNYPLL", "test": "ninhydrin asparagine formation assay, Km app method", "format": "biochemical"}, "TcAS-A [2]": {"target": "T1, TcAS-A", "test": "ninhydrin asparagine formation assay", "format": "biochemical"}, "TbAS-A [3]": {"target": "T2, TbAS-A (Trypanosoma brucei, UniProt Q57WT9)", "T2 construct": "gene Tb07.27M11.260; full ORF in pET28a(+), 6-His-tagged, expressed in E. coli BL21DE3, Ni purified; predicted dimer (homology model)", "T2 sequence (Q57WT9 1-351)": "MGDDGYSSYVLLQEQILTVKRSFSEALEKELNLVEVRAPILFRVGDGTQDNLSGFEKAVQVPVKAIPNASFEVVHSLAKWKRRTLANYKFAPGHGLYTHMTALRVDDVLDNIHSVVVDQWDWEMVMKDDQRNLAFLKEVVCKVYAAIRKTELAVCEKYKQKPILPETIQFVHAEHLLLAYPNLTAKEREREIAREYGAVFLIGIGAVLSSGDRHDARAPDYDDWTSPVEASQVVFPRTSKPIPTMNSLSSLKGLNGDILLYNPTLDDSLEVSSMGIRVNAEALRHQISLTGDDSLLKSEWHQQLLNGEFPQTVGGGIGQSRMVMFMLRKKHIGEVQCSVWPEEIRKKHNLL", "test": "ninhydrin asparagine formation assay, Km app method", "format": "biochemical"}, "TbAS-A [4]": {"target": "T2, TbAS-A", "test": "ninhydrin asparagine formation assay", "format": "biochemical"}, "purified protein": {"substrate": "N", "test": "purified protein", "details": "excess aspartate (>20 mM) and ATP (>10 mM), ammonia in solution as nitrogen donor, 8.4 mM Mg2+, 85 mM Tris-HCl, 37 °C"}, "[5]": {"substrate": "NC(=O)CC[C@H](N)C(=O)O", "test": "ninhydrin asparagine formation assay", "format": "biochemical, Trypanosoma brucei", "details": "excess ATP and aspartate, glutamine as nitrogen donor, 8.4 mM Mg2+, 85 mM Tris-HCl, 37 °C", "excerpt": "(§1) ninhydrin asparagine formation assay on TbAS-A"}, "[6]": {"substrate": "N[C@@H](CC(=O)O)C(=O)O", "test": "ninhydrin asparagine formation assay", "format": "biochemical, Trypanosoma brucei", "details": "excess ATP (>10 mM) and ammonia (>50 mM), 8.4 mM Mg2+, 85 mM Tris-HCl, 37 °C", "excerpt": "as §1"}, "[7]": {"substrate": "Nc1ncnc2c1ncn2[C@@H]1O[C@H](COP(=O)(O)OP(=O)(O)OP(=O)(O)O)[C@@H](O)[C@H]1O", "test": "ninhydrin asparagine formation assay", "format": "biochemical, Trypanosoma brucei", "details": "excess aspartate (>20 mM) and ammonia (>50 mM), 8.4 mM Mg2+, 85 mM Tris-HCl, 37 °C", "excerpt": "as §1"}, "[8]": {"substrate": "NC(=O)CC[C@H](N)C(=O)O", "test": "ninhydrin asparagine formation assay", "format": "biochemical, Trypanosoma cruzi", "details": "excess ATP and aspartate, glutamine as nitrogen donor, 8.4 mM Mg2+, 85 mM Tris-HCl, 37 °C", "excerpt": "(§2) ninhydrin asparagine formation assay on TcAS-A"}, "[9]": {"substrate": "N[C@@H](CC(=O)O)C(=O)O", "test": "ninhydrin asparagine formation assay", "format": "biochemical, Trypanosoma cruzi", "details": "excess ATP (>10 mM) and ammonia (>50 mM), 8.4 mM Mg2+, 85 mM Tris-HCl, 37 °C", "excerpt": "as §2"}, "[10]": {"substrate": "Nc1ncnc2c1ncn2[C@@H]1O[C@H](COP(=O)(O)OP(=O)(O)OP(=O)(O)O)[C@@H](O)[C@H]1O", "test": "ninhydrin asparagine formation assay", "format": "biochemical, Trypanosoma cruzi", "details": "excess aspartate (>20 mM) and ammonia (>50 mM), 8.4 mM Mg2+, 85 mM Tris-HCl, 37 °C", "excerpt": "as §2"}},
  "data": [
    {"molecule": "N[C@@H](CSS(=O)(=O)O)C(=O)O", "note": "[L-cysteine-S-sulfate]", "values": [
      {"measurement": "Ki", "setting": "TcAS-A [1]", "value": 129, "unit": "µM"},
      {"measurement": "IC50", "setting": "TcAS-A [2]", "value": 100, "unit": "µM"},
      {"measurement": "Ki", "setting": "TbAS-A [3]", "value": 137, "unit": "µM"},
      {"measurement": "IC50", "setting": "TbAS-A [4]", "value": 126, "unit": "µM"}
    ]},
    {"molecule": "TbAS-A (Trypanosoma brucei brucei TREU927) (protein, full ORF in pET28a(+), 6-His-tagged, expressed in E. coli BL21DE3, Ni purified; predicted dimer (homology model)) MGDDGYSSYVLLQEQILTVKRSFSEALEKELNLVEVRAPILFRVGDGTQDNLSGFEKAVQVPVKAIPNASFEVVHSLAKWKRRTLANYKFAPGHGLYTHMTALRVDDVLDNIHSVVVDQWDWEMVMKDDQRNLAFLKEVVCKVYAAIRKTELAVCEKYKQKPILPETIQFVHAEHLLLAYPNLTAKEREREIAREYGAVFLIGIGAVLSSGDRHDARAPDYDDWTSPVEASQVVFPRTSKPIPTMNSLSSLKGLNGDILLYNPTLDDSLEVSSMGIRVNAEALRHQISLTGDDSLLKSEWHQQLLNGEFPQTVGGGIGQSRMVMFMLRKKHIGEVQCSVWPEEIRKKHNLL", "values": [
      {"measurement": "Km", "setting": "purified protein", "value": "5.55 ± 0.41", "unit": "mM"},
      {"measurement": "kcat", "setting": "purified protein", "value": 5.69, "unit": "s⁻¹"},
      {"measurement": "kcat/Km", "setting": "purified protein", "value": 1030, "unit": "M⁻¹ s⁻¹"},
      {"measurement": "Km", "setting": "[5]", "value": "8.20 ± 1.70", "unit": "mM"},
      {"measurement": "kcat", "setting": "[5]", "value": "5.58 ± 0.48", "unit": "s⁻¹"},
      {"measurement": "kcat/Km", "setting": "[5]", "value": 680, "unit": "M⁻¹ s⁻¹"},
      {"measurement": "Km", "setting": "[6]", "value": "5.39 ± 0.31", "unit": "mM"},
      {"measurement": "kcat", "setting": "[6]", "value": "5.31 ± 0.11", "unit": "s⁻¹"},
      {"measurement": "kcat/Km", "setting": "[6]", "value": 985, "unit": "M⁻¹ s⁻¹"},
      {"measurement": "Km", "setting": "[7]", "value": "1.80 ± 0.32", "unit": "mM"},
      {"measurement": "kcat", "setting": "[7]", "value": "6.22 ± 0.38", "unit": "s⁻¹"},
      {"measurement": "kcat/Km", "setting": "[7]", "value": 3460, "unit": "M⁻¹ s⁻¹"}
    ]},
    {"molecule": "TcAS-A (Trypanosoma cruzi strain CL Brener) (protein, full ORF in pET28a(+), 6-His-tagged, expressed in E. coli BL21DE3, Ni purified; predicted dimer (homology model)) MTSGDPAAFIQLQEQIVTVKQVFSSALAKELNLVEVQAPLLACCGDGTQDNLSGTEKAVQVHVKGIPDSKFEVVHSLAKWKRQTLGDHKFPVGQGIYVHMKALRVEEELDTTHSVFVDQWDWELVMPPQERNLTFLKNTVQRLYAAIRQTEEAICSKYNLDRVLPANIQFLHAEHLLKMYPEMNMKERERAIVKKYGAVFLIGIGGNLTSGEPHDLRAPDYDDWSSPVSAADITFPCGDPTMNSLASLPGLNGDILVYNPVLDDVLELSSMGIRVDAETLRRQLTLLSNEDRLGYVWHKRLLAGEFPQTIGGGIGQSRLLMLLLKKKHIGEVQCSVWPKEMRQNYPLL", "values": [
      {"measurement": "Km", "setting": "purified protein", "value": "7.75 ± 1.55", "unit": "mM"},
      {"measurement": "kcat", "setting": "purified protein", "value": 2.45, "unit": "s⁻¹"},
      {"measurement": "kcat/Km", "setting": "purified protein", "value": 316, "unit": "M⁻¹ s⁻¹"},
      {"measurement": "Km", "setting": "[8]", "value": "15.33 ± 3.66", "unit": "mM"},
      {"measurement": "kcat", "setting": "[8]", "value": "3.38 ± 0.41", "unit": "s⁻¹"},
      {"measurement": "kcat/Km", "setting": "[8]", "value": 220, "unit": "M⁻¹ s⁻¹"},
      {"measurement": "Km", "setting": "[9]", "value": "6.45 ± 2.05", "unit": "mM"},
      {"measurement": "kcat", "setting": "[9]", "value": "2.41 ± 0.32", "unit": "s⁻¹"},
      {"measurement": "kcat/Km", "setting": "[9]", "value": 374, "unit": "M⁻¹ s⁻¹"},
      {"measurement": "Km", "setting": "[10]", "value": "0.72 ± 0.01", "unit": "mM"},
      {"measurement": "kcat", "setting": "[10]", "value": "3.45 ± 0.02", "unit": "s⁻¹"},
      {"measurement": "kcat/Km", "setting": "[10]", "value": 4790, "unit": "M⁻¹ s⁻¹"}
    ]}
  ]
}
